In assay [1] the target is T1, recombinant canine CTLA-4 extracellular domain protein (canine, UniProt Q9XSI1 36-161, biotin on the Avi tag (BirA ligase) in the ELISA, panning and interaction assays).
T1 construct: Cloned into pFUSE containing an HA tag, made in 293T cells; The SPR analyte is called soluble cCTLA-4 ECD, and biotinylation is not mentioned there; also called cCTLA-4; cCTLA-4 ECD
T1 chain: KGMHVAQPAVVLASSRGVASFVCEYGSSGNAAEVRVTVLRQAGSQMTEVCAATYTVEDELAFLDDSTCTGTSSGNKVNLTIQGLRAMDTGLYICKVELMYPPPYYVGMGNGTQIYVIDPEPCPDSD
Nature of the assay: scFv expression extract ELISA on cCTLA-4 (data not shown). Background: In an ELISA, binding on a coated surface is turned into a signal by an enzyme label.

For assay [2], the target named is T1, recombinant canine CTLA-4 extracellular …. Nature of the assay: ELISA; the axis is the amount of coated cCTLA-4, scFv fixed at 0.25 ug/ml.
The target of assay [3] is T2, human complement C1q (in normal human complement serum) (human, UniProt P02745 23-245; P02746 28-253; P02747 29-245).
T2 construct: also called human serum complement
T2 sequence (P02745 23-245 limits assumed, chain 1 of 3): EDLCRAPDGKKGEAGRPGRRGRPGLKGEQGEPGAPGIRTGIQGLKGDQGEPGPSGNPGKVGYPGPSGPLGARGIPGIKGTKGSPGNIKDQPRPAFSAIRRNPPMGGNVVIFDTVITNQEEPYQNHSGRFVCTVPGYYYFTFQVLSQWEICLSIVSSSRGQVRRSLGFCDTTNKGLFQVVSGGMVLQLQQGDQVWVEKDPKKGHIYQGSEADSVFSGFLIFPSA
T2 sequence (P02746 28-253 limits assumed, chain 2 of 3): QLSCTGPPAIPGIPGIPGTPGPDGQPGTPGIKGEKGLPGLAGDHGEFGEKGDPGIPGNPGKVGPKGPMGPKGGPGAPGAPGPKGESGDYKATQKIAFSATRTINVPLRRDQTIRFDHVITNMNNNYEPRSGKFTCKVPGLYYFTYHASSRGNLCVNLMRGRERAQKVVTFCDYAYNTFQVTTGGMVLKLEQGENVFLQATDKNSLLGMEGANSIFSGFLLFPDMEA
T2 sequence (P02747 29-245 limits assumed, chain 3 of 3): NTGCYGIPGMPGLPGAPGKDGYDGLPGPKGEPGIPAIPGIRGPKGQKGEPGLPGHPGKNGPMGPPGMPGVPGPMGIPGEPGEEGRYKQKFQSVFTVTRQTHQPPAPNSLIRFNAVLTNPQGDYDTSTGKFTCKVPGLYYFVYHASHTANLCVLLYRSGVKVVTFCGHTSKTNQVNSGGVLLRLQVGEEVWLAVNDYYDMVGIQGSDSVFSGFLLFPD
Description: complement fixation ELISA: antibody titrated on captured cCTLA-4, C1q of human serum detected.

In assay [4] the target is T1, recombinant canine CTLA-4 extracellular …. Nature of the assay: ELISA; the axis is the amount of CTLA4 per well, not the mAb concentration.
The target is the same in assay [5]. Description: SPR, full-length canine mAb and cCTLA-4. Background: SPR reads the build-up and loss of mass on a sensor chip optically.
For assay [6] the target is unchanged. Nature of the assay: SPR, mAb captured on the chip, cCTLA-4 ECD as analyte.
Assay [7] shares this target. Description: ELISA; the axis is the amount of coated CTLA4, not the mAb concentration.
For assay [8] the target is unchanged. Nature of the assay: SPR, mAb captured on the chip, cCTLA-4 ECD as analyte.

Where two headings read alike, the source gives them in different places.

B1: A1 scFv (soluble, His and HA tagged) (scFv)
scFv: QAVLNQPASVSGSLGQRVTISCTGSSSDIGKSYVAWYQQLPGTGPRTLINVDGNRASGVPDRFSVSRSGNTATLTISGLQAEDEADYHCSSWDWSLHTYVFGSGTQLTILGGGSSRSSSSGGGGSGGGGEVQLVESGGDLVKPAGSLRLSCVASGFSFSSYAMNWVRQAPGKGLQWIAGINSGGSSTSHIDAIKGRFTISRDNAKNTLYLQMNSLRAEDTAVYYCAISNWAYWGQGTLVTVSSESPSPPNLTSGQAGQHHHHHHGAYPYDVPDYAS
notes: Canine scFv from panning round 3; also called clone A1
Consider B1, for which the “fold increase in binding over background” value in assay [1] is > 20 fold. Besides, the “EC50 (read off the curve)” value in assay [2] is ~0.3 pmol biotinylated cCTLA4.

B2: A1mut2 full-length canine IgG3 (IgGC) mAb, HA-tagged (antibody)
heavy: EVQLVETGGDLVKPGGSLRLSCVASGFSFSSYAMNWVRQAPEKGLQLVGGINSGGSSTYYTDAVKGRFTISRDNAKNTVYLQMNSLRAEDTAVYYCAISNWAYWGQGTLVTVSSASTTAPSVFPLAPSCGSQSGSTVALACLVSGYIPEPVTVSWNSGSLTSGVHTFPSILQSSGLYSLSSMVTVPSSRWPSETFTCNVAHPATNTKVDKPVVKECECKCNCNNCPCPGCGLLGGPSVFIFPPKPKDILVTARTPTVTCVVVDLDPENPEVQISWFVDSKQVQTANTQPREEQSNGTYRVVSVLPIGHQDWLSGKQFKCKVNNKALPSPIEEIISKTPGQAHQPNVYVLPPSRDEMSKNTVTLTCLVKDFFPPEIDVEWQSNGQQEPESKYRMTPPQLDEDGSYFLYSKLSVDKSRWQRGDTFICAVMHEALHNHYTQKSLSHSPGKGGGSGGGSYPYDVPDYA
light: QAVLNQPASVSGSLGQRVTISCTGSSSDIGKSYVAWYQQLPGTGPRTLINVDGNRASGVPDRFSVSRSGNTATLTISGLQAEDEADYHCSSWDWSLHTYVFGSGTQLTILGQPKASPSVTLFPPSSEELGANKATLVCLISDFYPSGVTVAWKADGSPITQGVETTKPSKQSNNKYAASSYLSLTPDKWKSHSSFSCLVTHEGSTVEKKVAPAECS
notes: also called A1mut2 IgGC
Regarding B2, the “EC50 (read off the curve)” value in assay [3] is ~0.5 ug/ml antibody.

B3: A1mut2 full-length canine IgG2 (IgGB) mAb, HA-tagged (antibody)
heavy: EVQLVETGGDLVKPGGSLRLSCVASGFSFSSYAMNWVRQAPEKGLQLVGGINSGGSSTYYTDAVKGRFTISRDNAKNTVYLQMNSLRAEDTAVYYCAISNWAYWGQGTLVTVSSASTTAPSVFPLAPSCGSTSGSTVALACLVSGYFPEPVTVSWNSGSLTSGVHTFPSVLQSSGLYSLSSMVTVPSSRWPSETFTCNVAHPASKTKVDKPVPKRENGRVPRPPDCPKCPAPEMLGGPSVFIFPPKPKDTLLIARTPEVTCVVVDLDPEDPEVQISWFVDGKQMQTAKTQPREEQFNGTYRVVSVLPIGHQDWLKGKQFTCKVNNKALPSPIERTISKARGQAHQPSVYVLPPSREELSKNTVSLTCLIKDFFPPDIDVEWQSNGQQEPESKYRTTPPQLDEDGSYFLYSKLSVDKSRWQRGDTFICAVMHEALHNHYTQESLSHSPGKGGGSGGGSYPYDVPDYA
light: QAVLNQPASVSGSLGQRVTISCTGSSSDIGKSYVAWYQQLPGTGPRTLINVDGNRASGVPDRFSVSRSGNTATLTISGLQAEDEADYHCSSWDWSLHTYVFGSGTQLTILGQPKASPSVTLFPPSSEELGANKATLVCLISDFYPSGVTVAWKADGSPITQGVETTKPSKQSNNKYAASSYLSLTPDKWKSHSSFSCLVTHEGSTVEKKVAPAECS
notes: also called A1mut2 IgGB
Consider B3, for which the “EC50 (read off the curve)” value in assay [3] was ~0.6 ug/ml antibody.

B4: clone A1 full-length canine IgG1 (IgGA) mAb (antibody, V domains shown)
VH: EVQLVESGGDLVKPAGSLRLSCVASGFSFSSYAMNWVRQAPGKGLQWIAGINSGGSSTSHIDAIKGRFTISRDNAKNTLYLQMNSLRAEDTAVYYCAISNWAYWGQGTLVTVSS
VL: QAVLNQPASVSGSLGQRVTISCTGSSSDIGKSYVAWYQQLPGTGPRTLINVDGNRASGVPDRFSVSRSGNTATLTISGLQAEDEADYHCSSWDWSLHTYVFGSGTQLTILG
notes: Produced only at low levels; also called A1 mAb
For B4, the “EC50 (read off the curve)” value in assay [4] was ~0.7 pmol/well CTLA4.

B5: B10 full-length canine IgG1 (IgGA) mAb (antibody)
heavy: EVQLVETGGDLVKPGGSLRLSCVASGFTFSDYPMNWVRQAPEKGLQLVGGINSGGSATYYTDAVKGRFTISRDNAKNTVYLQMNSLRAEDTAMYYCATSNFQYWGQGTLVTVSSASTTAPSVFPLAPSCGSTSGSTVALACLVSGYFPEPVTVSWNSGSLTSGVHTFPSVLQSSGLYSLSSMVTVPSSRWPSETFTCNVVHPASNTKVDKPVFNECRCTDTPPCPVPEPLGGPSVLIFPPKPKDILRITRTPEVTCVVLDLGREDPEVQISWFVDGKEVHTAKTQSREQQFNGTYRVVSVLPIEHQDWLTGKEFKCRVNHIDLPSPIERTISKARGRAHKPSVYVLPPSPKELSSSDTVSVTCLIKDFYPPDIDVEWQSNGQQEPERKHRMTPPQLDEDGSYFLYSKLSVDKSRWQQGDPFTCAVMHETLQNHYTDLSLSHSPGKGGGSGGGSYPYDVPDYA
light: QAVLNQPASVSAALGQRVTISCNTNIGSPYDVQWYQQLPGKSPKTIIYGNSNRPSGVPVRFSGSKSGSTATLTIAGIQAEDEADYYCQSYDDNVDGYVFGSGTQLTVLGQPKASPSVTLFPPSSEELGANKATLVCLISDFYPSGVTVAWKADGSPITQGVETTKPSKQSNNKYAASSYLSLTPDKWKSHSSFSCLVTHEGSTVEKKVAPAECS
notes: The HA tag is placed on the heavy chain; also called B10 mAb; B10 antibody
In general, Kd refers to the equilibrium constant for the complex coming apart. The term kon denotes the second-order rate constant of association. The term koff denotes the rate constant with which the complex falls apart. Turning to B5, in assay [5], the Kd amounted to 1.5 nM, the on-rate (kon) is 160000 M⁻¹ s⁻¹ and the t1/2 turned out to be 46 min. Further, in assay [6], the Kd was found to be 1.5 nM, the koff came to 0.00025 s⁻¹, the kon was 160000 M⁻¹ s⁻¹ and the t1/2 turned out to be 46 min. Moreover, the “EC50 (read off the curve)” value in assay [4] was ~0.9 pmol/well CTLA4. In addition, in assay [7], the “EC50 (read off the curve)” value was ~0.2 pmol biotinylated CTLA4/well.

B6: D5 full-length canine IgG1 (IgGA) mAb (antibody)
heavy: EVQLVETGGDLMKPGGSLRLSCVASGFTFSSYSMSWVRQAPEKGLQLVAGINSGGSSTYYTDAVKGRFTISRDNAKNTLYLQMNSLRDEDTAVYYCVISNWSYWGQGTLVTVSSASTTAPSVFPLAPSCGSTSGSTVALACLVSGYFPEPVTVSWNSGSLTSGVHTFPSVLQSSGLYSLSSMVTVPSSRWPSETFTCNVVHPASNTKVDKPVFNECRCTDTPPCPVPEPLGGPSVLIFPPKPKDILRITRTPEVTCVVLDLGREDPEVQISWFVDGKEVHTAKTQSREQQFNGTYRVVSVLPIEHQDWLTGKEFKCRVNHIDLPSPIERTISKARGRAHKPSVYVLPPSPKELSSSDTVSVTCLIKDFYPPDIDVEWQSNGQQEPERKHRMTPPQLDEDGSYFLYSKLSVDKSRWQQGDPFTCAVMHETLQNHYTDLSLSHSPGKGGGSGGGSYPYDVPDYA
light: QPVLTQPPSVSAALGQRVTISCTGTATNVGGGYDVQWYQQFPGRPPKTIIYGNYNRPSGVPDRFSASTSGTTATLTISGLQAEDEANYYCSSWDNSLTAYVFGSGTQLTILGQPKASPSVTLFPPSSEELGANKATLVCLISDFYPSGVTVAWKADGSPITQGVETTKPSKQSNNKYAASSYLSLTPDKWKSHSSFSCLVTHEGSTVEKKVAPAECS
notes: The HA tag is placed on the heavy chain; also called D5 mAb; D5 antibody
Turning to B6, in assay [5], the Kd stood at 1.5 nM, the on-rate (kon) was found to be 120000 M⁻¹ s⁻¹ and the t1/2 was 64 min. For the same molecule, in assay [8], the Kd was determined as 1.5 nM, the koff stood at 0.00018 s⁻¹, the on-rate constant (kon) was determined as 120000 M⁻¹ s⁻¹ and the t1/2 is 64 min. Besides, the “EC50 (read off the curve)” value in assay [4] is ~0.7 pmol/well CTLA4. Also, the “EC50 (read off the curve)” value in assay [7] was ~0.2 pmol biotinylated CTLA4/well.

B7: D5 scFv (soluble, His and HA tagged) (scFv)
scFv: QPVLTQPPSVSAALGQRVTISCTGTATNVGGGYDVQWYQQFPGRPPKTIIYGNYNRPSGVPDRFSASTSGTTATLTISGLQAEDEANYYCSSWDNSLTAYVFGSGTQLTILGGGSSRSSSSGGGGSGGGGEVQLVETGGDLMKPGGSLRLSCVASGFTFSSYSMSWVRQAPEKGLQLVAGINSGGSSTYYTDAVKGRFTISRDNAKNTLYLQMNSLRDEDTAVYYCVISNWSYWGQGTLVTVSSESPSPPNLTSGQAGQHHHHHHGAYPYDVPDYAS
notes: Canine scFv from panning round 4; also called clone D5
For the molecule B7, in assay [1], the “fold increase in binding over background” value was > 20 fold. In assay [2], the “EC50 (read off the curve)” value was ~0.4 pmol biotinylated cCTLA4.

B8: B10 scFv (soluble, His and HA tagged) (scFv)
scFv: QAVLNQPASVSAALGQRVTISCNTNIGSPYDVQWYQQLPGKSPKTIIYGNSNRPSGVPVRFSGSKSGSTATLTIAGIQAEDEADYYCQSYDDNVDGYVFGSGTQLTVLGGGSSRSSSSGGGGSGGGGEVQLVETGGDLVKPGGSLRLSCVASGFTFSDYPMNWVRQAPEKGLQLVGGINSGGSATYYTDAVKGRFTISRDNAKNTVYLQMNSLRAEDTAMYYCATSNFQYWGQGTLVTVSSESPSPPNLTSGQAGQHHHHHHGAYPYDVPDYAS
notes: Canine scFv from panning round 3; also called clone B10
On to B8, for which the “fold increase in binding over background” value in assay [1] was > 20 fold. Moreover, the “EC50 (read off the curve)” value in assay [2] is ~0.6 pmol biotinylated cCTLA4.

Source of the values: patent publication US20240109967A1 (University of Pennsylvania, published 2024).
